From US20250051443A1 (NATIONAL RESEARCH COUNCIL OF CANADA, published 2025)

B1: F282-2D5 (antibody, V domains shown)
VH: QVQLQQPGTELVKPGASVKLSCKASGYTFTSYWMHWVKQRPGQGLEWIGNINPSNGGTNYNENFKTKATLTVDKSSSTAYMQLSSLTSEDSAVYYCARDRSGQYYFDYWGQGTTLTVSS
VL: DIVMSQSPSSLAVSAGEKVTMSCKSSQSLLNSRTRKNYLAWYQQKPGQSPKLLIYWASTRESGVPDRFTGSGSGTDFTLTISSVQAEDLAVYYCIQSYHLRTFGGGTILEIK
notes: also called F282-2D5-2
B2: F332-7C9 (antibody, mouse IgG2a, V domains shown)
VH: QVQLQQSGPELVKPGASVRISCKASGYTFTSHYLHWVKQRPGQGFEWIGWIYPGDGNTRYNEKFKDRATLTADKSSSTAYLHLSSLTSEDSAVYFCARDAGYYFDYWGQGTTLAVSS
VL: DIVMSQSPSSLAVSAGEKVTMSCKSSQSLLNSRTRKNYLAWYQQKPGQSLKVLIYWASTRESGVPDRFTGSGSGTDFTLTISSVQAEDLAVYYCKQSYSLRTFGGGTKLEIK
notes: also called F332-7C9-2; F332-7C9 (5C7, 7D10)
B3: F332-7C5 (antibody, mouse IgG2a, V domains shown)
VH: QVQLQQPGAELGKPGTSVKLSCKASGYTFTSYWMHWVKQRPGQGLEWIGNINPSSGITNYNERFKNKATLTVDKSSTTAYMQLSILTSEDSAVYYCSRDISGQYYFNFWGQGTTLTVSS
VL: DIVMSQSPSSLAVSAGEKVTMSCKSSQSLLNSRTRKNYLAWYQQKPGQSPKLLIYWASTRESGVPDRFTGTGSGTDFTLTISSVQAEDLAVYYCKQSYNLRTFGGGTKLEIK
notes: also called F332-7C5-2; F332-7C5 (5E12, 10A8)
B4: F332-1C9 (antibody, mouse IgG2a, V domains shown)
VH: QVQLQQPGAELGKPGTSVNLSCKASGYTFTSYWMHWVKQRPGQGLDWIGNINPNSGTTNYNEKFKSKATLTVDKSSSTAYMQLSTLTSEDSAVYYCTRDISGQYYFDYWGQGTSLTVSS
VL: DIVMSQSPSSLAVSAGEKVTMSCKSSQSLLNSRTRKNYLAWYQQKPGQSPKLLIYWASTRESGVPDRFTGSGSGTDFTLIISSVQAEDLAVYYCKQSYSLRTFGGGTKLEIK
notes: Sister clones 1A10, 5H8, 8B11 share the same entries; also called F332-1C9-2; F332-1C9 (1A10, 5H8, 8B11)
B5: F332-5F2 (antibody, mouse IgG2b, V domains shown)
VH: QVQLQQPGAELGKPGTSVKLSCKASGYTFTSYWMHWVKQRPGQGLEWIGNINPNGGDSNYNEKFKSKATLTVDKSSSTAYMQLSTLTSEDSAVYYCTRDISGQYYFDFWGQGTSLTVFS
VL: DILMSQSPSSLAVSAGEQVTMSCKSSQSLLNSRTRKNYLAWYQQKPGQSPKLLIFWASTRKSGVPDRFTGSGSGTYFTLTISSVQAEDLAVYYCTQSYNLRTFGGGTKLEIK
notes: also called F332-5F2-2; F332-5F2 (6G8, 13A3)
B6: F332-1E2 (antibody, mouse IgG2a, V domains shown)
VH: QVQLQQPGAELGKPGTSVKLSCKASGYTFTSYWIHWVKQRPGQGLEWVGNINPNSGSINYNEKFKNKATLTVDKSSSTAYMQLSTLTSEDFAVYYCTRDTSGQYYFDYWGQGTTLTVSS
VL: DIVMSQSPSSLAVSAGERVTMSCKSSQSLLNSRTRKNYLAWYQQKPGQSPKLLIYWASTRESGVPDRFTGSGSGTDFTLTISSVQAEDLAVYYCIQSYHLRTFGGGTKLEIK
notes: Sister clone 8C5 shares the same entries; also called F332-1E2-2; F332-1E2 (8C5)
B7: F332-6D7 (antibody, mouse IgG2a, V domains shown)
VH: QVQLQQPGAELGKPGTSVNLSCKASGYTFTSYWMHWVKQRPGQGLDWIGNINPNSGTTNYNEKFKSKATLTVDKSSSTAYMQLSTLTSEDSAVYYCTRDISGQYYFDYWGQGTSLTVSS
VL: DIVMSQSPSSLAVSAGEKVTMSCKSSQSLLNSRTRKNYLAWYQQKPGQSPKLLIYWASTRESGVPDRFTGSGSGTDFTLTISSVQAEDLAVYYCKQSYSLRTFGGGSKLEIK
notes: also called F332-6D7-2; F332-6D7 (7G4)
B8: F332-3E9 (antibody, mouse IgG2a, V domains shown)
VH: QVQLQQPGAELGKPGTSVKLSCKASGYTFTSYWIHWLKQRPGQGLEWIGNINPNGGSINCNEKFTTKATLTIDKSSSTAYMQLSTLTSEDFAVYYCTRDTSGQYYFDYWGQGTTLTVSS
VL: DIMMSQSPSSLAVSAGEKVTMSCKSSQSLLNSRTRKNYLAWYQQKPGQSPKLLIYWASTRESGVPDRFTGSGSGTDFTLTISSVQAEDLAVYYCTQSYHLRTFGGGTKLEIK
notes: also called F332-3E9-2; F332-3E9 (12G4)
B9: F332-4D6 (antibody, mouse IgG2a, V domains shown)
VH: QVQLQQSGAELGKPGTSVKLSCKASGYTFTSYWIHWVKQRPGQGLEWIGNINPNSGSTNYNEKFKRKATLTADKSSSTAYMQLSTLTSEDFAVYYCTRDTSGQYYFDYWGQGTTLTVSS
VL: DIVMSQSPSSLAVSAGEKVTMSCKSSQSLLNSRTRKNYLAWYQQKPGQSPKVLIYWASTRESGVPDRFTGSGSGTDFTLTISSVQAEDLAVYYCKQSYHLRTFGGGTKLEIK
notes: also called F332-4D6-2; F322-4D6

What was measured:
Cynomolgus CD3 [1] = target: T1, Cynomolgus CD3 (Cynomolgus, UniProt Q95LI5 22-198; Q95LI7 23-181; Q95LI8 22-171); assay: apparent KD (KDapp), flow cytometry titration on fresh cynomolgus PBMCs
T1 construct: whole, on cells; also called CD3 on Cynomolgus PBMCs; CD3 on HSC-F Cynomolgus T cell line
T1 sequence (Q95LI5 22-198, chain 1 of 3): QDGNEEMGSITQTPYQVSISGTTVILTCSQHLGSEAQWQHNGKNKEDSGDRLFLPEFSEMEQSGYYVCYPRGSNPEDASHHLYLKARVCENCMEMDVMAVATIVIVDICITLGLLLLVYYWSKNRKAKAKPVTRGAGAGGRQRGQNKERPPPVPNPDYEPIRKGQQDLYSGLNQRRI
T1 sequence (Q95LI7 23-181, chain 2 of 3): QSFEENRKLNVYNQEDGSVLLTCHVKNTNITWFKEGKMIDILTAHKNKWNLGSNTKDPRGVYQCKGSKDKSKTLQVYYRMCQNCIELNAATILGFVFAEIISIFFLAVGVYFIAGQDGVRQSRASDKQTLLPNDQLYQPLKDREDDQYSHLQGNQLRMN
T1 sequence (Q95LI8 22-171, chain 3 of 3): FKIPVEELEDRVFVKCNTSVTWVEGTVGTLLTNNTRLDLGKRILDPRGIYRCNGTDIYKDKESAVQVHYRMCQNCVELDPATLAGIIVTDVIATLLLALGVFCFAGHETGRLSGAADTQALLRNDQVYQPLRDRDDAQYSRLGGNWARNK
Method: (§1) To characterize potential cross-reactivity of the anti-human CD3 mAbs to NHP T cells, dose response flow cytometry titration studies were performed on both freshly obtained Cynomolgus PBMCs (Comparative Medicine and Animal Resources Centre—McGill University) or the Cynomolgus derived T cell line, HSC-F (Non-Human Primate Reagent Resource—NIH). Binding studies on fresh Cynomolgus PBMCs was performed on a subset of anti-CD3 mAbs (FIG. 4) whereas the Herpesvirus saimiri immortalized Cynomolgus T cell line HSC-F was employed for further evaluations (FIGS. 5A to 5C). KDapp values were calculated using a non-linear regression model of one-site binding with Hill slope (GraphPad Prism) and tabulated (Table 3b). Similar KDapp values for anti-CD3 mAb 1E2 obtained from binding to fresh Cynomolgus PBMCs (KDapp=0.28 nM) or the HSC-F T cell line (KDapp=0.39 nM) indicated the HSC-F cell line was a suitable surrogate for ex vivo NHP T cells.
Cynomolgus PBMCs were obtained from fresh ex vivo peripheral blood via density centrifugation and cultured overnight at 37° C./5% CO₂ in the presence of human recombinant IL2 (20 IU/mL; Novartis). Starting from 100 nM, graded doses of the anti-CD3 mAbs were incubated with 100K NHP PBMCs for 0.5 hours at 4° C. in flow staining buffer (SB; PBS/1% BSA/0.01% NaN3) in 96 w V-bottom plates. Following plate washing with SB (150 μL), cell pellets were resuspended in a 5 µg/mL solution of goat (Fab′)₂ anti-mouse IgG (H+L)− APC secondary antibody in SB, incubated at 4° C. (30 min.), washed 1× with SB, and resuspended for flow analysis. The commercial NHP cross-reactive SP34.2 anti-CD3 mAb (BD Biosciences), anti-human OKT-3 IgG2a (Biolegend—data not shown) and non-specific mIgG were employed as controls. 20K live events were acquired on a BD LSRFortessa flow analyzer and mean fluorescence intensities (MFI) calculated after subtraction of secondary antibody alone values. Using GraphPad Prism software, the data were analyzed using a one site specific binding with Hill slope non-linear regression model to calculate KDapp and BMax values (See Table 2).

Cynomolgus CD3 [2] = target: T1, Cynomolgus CD3; assay: apparent KD (KDapp), flow cytometry titration on cynomolgus HSC-F T cell line
Method: as §1
HSC-F T cells obtained from the Non-Human Primate Reagent Resource (NIH) were maintained in culture in RPMI media containing 20% FBS and 40 IU/mL recombinant human IL2. 100K HSC-F cells in logarithmic cell growth were treated with graded doses of the anti-CD3 mAbs starting at 100 nM in staining buffer (SB; PBS/1% BSA/0.01% NaN3) for 2 hours at 4° C. in 96 w V-bottom plates. Following plate washing with SB, the cell pellets were resuspended with 25 μL of goat (Fab′)₂ anti-mouse IgG (H+L)− APC secondary antibody (final 5 μg/mL), incubated for 30 minutes at 4° C., followed by flow cytometry analysis. The commercial NHP cross-reactive SP34.2 anti-CD3 mAb (BD Biosciences), recombinant anti-human OKT-3 IgG2b (in house produced) and non-specific mIgG were employed as controls. 20K live events were acquired on a BD LSRFortessa flow analyzer and mean fluorescence intensities (MFI) calculated after subtraction of secondary antibody alone values. Using GraphPad Prism software, the data were analyzed using a one site specific binding with Hill slope non-linear regression model to calculate KDapp and BMax values (See Table 2).

Cynomolgus CD3 [3] = target: T1, Cynomolgus CD3; assay: apparent KD (KDapp), flow cytometry titration on fresh cynomolgus PBMCs; second value in brackets, not explained

Binder | Kd (Cynomolgus CD3 [1]) [nM] | Kd (Cynomolgus CD3 [2]) [nM] | Kd (Cynomolgus CD3 [3]) [nM]
B1 | 0.11 |  | 
B2 |  | 0.36 | 
B3 |  | 0.37 | 
B4 | 0.25 |  | 0.26
B5 |  | 0.4 | 
B6 | 0.28 | 0.39 | 
B7 |  | 0.27 | 
B8 | 0.21 |  | 
B9 | 0.15 |  | 
